# CN114106160A
# Target: SARS-CoV-2 S1蛋白 (ACRO Biosystems) (SARS-CoV-2) (UniProt P0DTC2)
# Test: BLI, biotinylated SARS-CoV-2 S1 on SA sensor, antibody as analyte, 1:1 model
substance,measurement,value
人源抗体CR3022 (antibody),Kd,0.0866 nM
same,koff,1.9e-05 s⁻¹
same,kon,220000 M⁻¹ s⁻¹
